This note sets out measurements from US20250313644A1 (FUTUREGEN BIOPHARMACEUTICAL BEIJING, published 2025).

Test [1] concerns the target T1, HuTL1A mutant S234A (mutant number 4133) (human, UniProt O95150 57-251, limits assumed).
T1 construct: whole entry named
T1 chain: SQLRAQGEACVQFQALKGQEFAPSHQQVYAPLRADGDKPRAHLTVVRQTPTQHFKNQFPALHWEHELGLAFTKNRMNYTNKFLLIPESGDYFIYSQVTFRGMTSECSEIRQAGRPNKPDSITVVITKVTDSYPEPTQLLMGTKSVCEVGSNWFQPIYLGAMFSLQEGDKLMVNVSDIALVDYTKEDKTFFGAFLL
Nature of the test: BLI (Gator) on antigen mutant S234A.

Test [2] deals with T2, human TL1A (HuTL1A) (human, UniProt O95150 57-251, limits assumed, biotin-labelled in some assays (site not stated)).
T2 construct: Expressed in EXPI-293 cells and purified by Ni-NTA (His-tag); Described as a trimeric antigen; also called TL1A antigen; WT
T2 sequence: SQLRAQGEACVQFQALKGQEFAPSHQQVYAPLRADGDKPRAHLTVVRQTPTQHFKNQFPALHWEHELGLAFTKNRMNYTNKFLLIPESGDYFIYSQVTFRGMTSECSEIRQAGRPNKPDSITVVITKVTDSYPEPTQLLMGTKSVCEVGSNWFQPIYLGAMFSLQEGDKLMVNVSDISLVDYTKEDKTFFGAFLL
Nature of the test: ELISA: biotin-HuTL1A on streptavidin plate, antibody diluted at pH 7.4, HRP-anti-human Fc, OD450. The procedure:
(§1) Corresponding antibodies were added to specific wells, and the antibodies were diluted with sodium dihydrogen phosphate-citrate buffer at pH 7.4, pH 6.0, pH 5.8, or pH 5.6. Binding assay was carried out at room temperature for 30 minutes. After the incubation, the excess antibodies were removed and the wells were washed by PBST. HRP-anti-Human Fc (Sino Biological) was then added into each well and incubated for 30 minutes to detect the bound antibody. The substrate TMB was finally added to develop color for 5-10 minutes. The color development reaction was terminated with 1M sulfuric acid. OD450 nm was recorded on a microplate reader, and the data were processed and fitted by 4 parameter logistic regression.

The target of test [3] is T3, HuTL1A mutant Y238A (mutant number 4134) (human, UniProt O95150 57-251, limits assumed).
T3 construct: whole entry named
T3 chain: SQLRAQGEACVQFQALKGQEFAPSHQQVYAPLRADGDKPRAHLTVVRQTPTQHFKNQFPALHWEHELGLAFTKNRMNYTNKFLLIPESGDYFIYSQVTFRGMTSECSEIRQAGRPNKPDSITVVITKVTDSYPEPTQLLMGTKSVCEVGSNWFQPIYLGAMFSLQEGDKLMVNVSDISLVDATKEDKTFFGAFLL
Nature of the test: BLI (Gator) on antigen mutant Y238A.

Test [4] deals with T2, human TL1A (HuTL1A). The test is described as follows: BLI (Gator), biotin-HuTL1A on SA probe, pH 7.4; BLI (Gator), pH 7.4. How it is done:
The binding kinetics between monoclonal antibodies and antigens was measured using Gator, a label-free biomolecule interaction analyzer based on the principle of biolayer interference (BLI). […] Then a serial dilutions of single-arm M701 antibodies and control antibodies were added. The antibodies interacted with the antigen captured by the SA probe, and the interaction was analyzed by detecting the signal change of the reflection interference spectrum of the probe surface, and finally the binding kinetics constants of the antibodies were calculated. The kinetic constants of antigen and antibodies were measured at pH 7.4 and 5.6 in sodium dihydrogen phosphate-citrate buffer.

Test [5] concerns the target T4, HuTL1A mutant V102A (mutant number 4139) (human, UniProt O95150 57-251, limits assumed).
T4 construct: whole entry named
T4 chain: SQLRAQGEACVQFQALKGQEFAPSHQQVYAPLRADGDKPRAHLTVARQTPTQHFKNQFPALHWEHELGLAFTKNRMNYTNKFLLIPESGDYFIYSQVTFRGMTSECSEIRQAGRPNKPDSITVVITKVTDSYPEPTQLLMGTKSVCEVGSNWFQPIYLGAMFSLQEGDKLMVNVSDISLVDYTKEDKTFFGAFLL
Nature of the test: BLI (Gator) on antigen mutant V102A.

For test [6], the target named is T5, HuTL1A mutant H118A (mutant number 4137) (human, UniProt O95150 57-251, limits assumed).
T5 construct: whole entry named
T5 chain: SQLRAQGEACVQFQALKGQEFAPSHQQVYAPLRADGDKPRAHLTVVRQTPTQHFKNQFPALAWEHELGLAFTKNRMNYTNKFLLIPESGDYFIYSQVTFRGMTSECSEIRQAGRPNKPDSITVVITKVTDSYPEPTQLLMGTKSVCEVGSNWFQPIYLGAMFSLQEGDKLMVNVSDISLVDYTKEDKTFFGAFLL
Nature of the test: BLI (Gator) on antigen mutant H118A.

Test [7] addresses T6, HuTL1A mutant T239A (mutant number 4135) (human, UniProt O95150 57-251, limits assumed).
T6 construct: whole entry named
T6 chain: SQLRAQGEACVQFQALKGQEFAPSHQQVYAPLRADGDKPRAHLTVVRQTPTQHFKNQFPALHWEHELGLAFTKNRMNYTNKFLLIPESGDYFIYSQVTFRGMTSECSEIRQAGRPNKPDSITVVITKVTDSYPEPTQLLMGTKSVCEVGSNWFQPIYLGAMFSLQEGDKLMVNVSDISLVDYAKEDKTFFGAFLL
The test is described as follows: BLI (Gator) on antigen mutant T239A.

In test [8] the target is T7, HuTL1A mutant E120A (mutant number 4138) (human, UniProt O95150 57-251, limits assumed).
T7 construct: whole entry named
T7 chain: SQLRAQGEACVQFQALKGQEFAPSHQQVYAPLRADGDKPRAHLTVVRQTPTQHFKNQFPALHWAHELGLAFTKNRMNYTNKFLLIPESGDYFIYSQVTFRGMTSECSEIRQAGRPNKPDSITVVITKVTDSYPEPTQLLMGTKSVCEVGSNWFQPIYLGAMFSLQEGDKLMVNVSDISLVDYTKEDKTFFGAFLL
Nature of the test: BLI (Gator) on antigen mutant E120A.

The target of test [9] is T8, HuTL1A mutant T105A (mutant number 4140) (human, UniProt O95150 57-251, limits assumed).
T8 construct: whole entry named
T8 chain: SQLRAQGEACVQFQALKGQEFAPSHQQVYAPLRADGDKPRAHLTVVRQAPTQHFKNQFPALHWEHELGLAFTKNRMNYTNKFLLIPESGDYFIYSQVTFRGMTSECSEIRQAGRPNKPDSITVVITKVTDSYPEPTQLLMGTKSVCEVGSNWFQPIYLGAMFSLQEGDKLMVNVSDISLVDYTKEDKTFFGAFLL
Nature of the test: BLI (Gator) on antigen mutant T105A.

Test [10] deals with T9, HuTL1A mutant K240A (mutant number 4136) (human, UniProt O95150 57-251, limits assumed).
T9 construct: whole entry named
T9 chain: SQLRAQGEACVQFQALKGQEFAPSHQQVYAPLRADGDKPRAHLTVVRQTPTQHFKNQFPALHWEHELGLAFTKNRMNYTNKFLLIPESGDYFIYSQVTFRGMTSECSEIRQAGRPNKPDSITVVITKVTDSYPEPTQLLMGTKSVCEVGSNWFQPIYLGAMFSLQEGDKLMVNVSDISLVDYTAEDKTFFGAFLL
The test is described as follows: BLI (Gator) on antigen mutant K240A.

For test [11], the target named is T2, human TL1A (HuTL1A). Nature of the test: BLI (Gator), His-tagged TL1A on anti-His probe, pH 7.4. The procedure: (§2) Then a serial dilutions of single-arm M701 antibodies and control antibodies were added.
In test [12] the target is T10, cynomolgus monkey/rhesus monkey TL1A (cynomolgus monkey/rhesus monkey).
T10 construct: also called Cynomolgus/rhesus monkey TL1A
The description is as above. The procedure:
as §2

In test [13] the target is T2, human TL1A (HuTL1A). Nature of the test: BLI (Gator) on WT antigen (3907).
For test [14], the target named is T2, human TL1A (HuTL1A). Nature of the test: ELISA: biotin-HuTL1A on streptavidin plate, antibody diluted at pH 7.4, HRP-anti-human Fc, OD450. The procedure:
as §1
This is another data set of the same source. (In an ELISA, binding on a coated surface is turned into a signal by an enzyme label.)

Like-named read-outs stand apart in the source and are kept apart here.

B1: single-arm antibody M701-3973 (antibody, human IgG1, kappa, L234A L235A)
heavy: ELQLQESGPGLVKPSETLSLTCAVSGVSFSDYHWAWIRQPPGKGLEWIGDINHRGHTNYNPSLKSRVTVSIDTSKNQFSLKLSSVTAADTAVYFCARDFPNFIFDFWGQGTLVTVSSASTKGPSVFPLAPSSKSTSGGTAALGCLVKDYFPEPVTVSWNSGALTSGVHTFPAVLQSSGLYSLSSVVTVPSSSLGTQTYICNVNHKPSNTKVDKKVEPKSCDKTHTCPPCPAPEAAGGPSVFLFPPKPKDTLMISRTPEVTCVVVDVSHEDPEVKFNWYVDGVEVHNAKTKPREEQYNSTYRVVSVLTVLHQDWLNGKEYKCKVSNKALGAPIEKTISKAKGQPREPQVYTLPPCREEMTKNQVSLWCLVKGFYPSDIAVEWESNGQPENNYKTTPPVLDSDGSFFLYSKLTVDKSRWQQGNVFSCSVMHEALHNHYTQKSLSLSPG
light: not shown
chain: DKTHTCPPCPAPEAAGGPSVFLFPPKPKDTLMISRTPEVTCVVVDVSHEDPEVKFNWYVDGVEVHNAKTKPREEQYNSTYRVVSVLTVLHQDWLNGKEYKCKVSNKALGAPIEKTISKAKGQPREPQVCTLPPSREEMTKNQVSLSCAVKGFYPSDIAVEWESNGQPENNYKTTPPVLDSDGSFFLVSKLTVDKSRWQQGNVFSCSVMHEALHNHYTQKSLSLSPG
The Kd is the free concentration of one partner at which half of the binding sites on the other are occupied at equilibrium, for simple one-to-one binding. The EC50 (read off the curve) is the concentration giving half of the maximal effect. Usually koff stands for the first-order rate constant of dissociation. One may read the kon as a measure of how fast the partners come together. Take B1: the Kd turned out to be 7.82 nM in test [1]; 12100 nM in test [3]; 5.62 nM with human TL1A (HuTL1A) [4]; 5850 nM in test [5]; 7.73 nM in [6]; 11.6 nM in test [7]. In addition, the Kd in [8] was found to be 17.3 nM; in test [9], 6.65 nM; in test [10] it was 8.15 nM; in the test with human TL1A (HuTL1A) [11], 5.92 nM; in [12] it was 6.09 nM; in the test with human TL1A (HuTL1A) [13], 8.39 nM. Further, the “EC50 (read off the curve)” value with human TL1A (HuTL1A) [2] and with human TL1A (HuTL1A) [14] was roughly 0.6 nM each time. Moreover, the results for the koff (with human TL1A (HuTL1A) [4]; with human TL1A (HuTL1A) [11]; in test [12]) were 0.00214 s⁻¹, 0.00353 s⁻¹ and 0.00375 s⁻¹, respectively. For the same molecule, the kon was found to be 381000 M⁻¹ s⁻¹ in the test with human TL1A (HuTL1A) [4], 596000 M⁻¹ s⁻¹ in the test with human TL1A (HuTL1A) [11] and 616000 M⁻¹ s⁻¹ in [12].
